± gives the standard deviation of the averaged measurements.
What follows are sequences tested on Saccharomyces cerevisiae (assay: protein stability index of tFT-peptide fusion (C-terminal peptide) (PSI (0-1 scale)); higher = more stable (slower turnover)). Conditions: genetic background: wild type; temperature: 30 C.
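Also: PSI is a weighted mean of sequencing reads over stability bins, variants kept only with over 10 reads, mCherry proximal and sfGFP distal, peptide attached via GGGS linker.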

Row | Sequence | protein stability index
1 | AHLPSPRPRPPP | 0.764 ± 0.013
2 | NKLKEKNEKYKV | 0.659 ± 0.025
3 | NKKKREYKGMNF | 0.686 ± 0.044
4 | DGFGVARGVSWG | 0.752 ± 0.035
5 | VSDGGCIFHRRT | 0.704 ± 0.055
6 | LPLPHALGSWSY | 0.7278 ± 0.0061
7 | TPGYWVPPPTIP | 0.66 ± 0.027
8 | PQSSLPPLSTSS | 0.686 ± 0.011
9 | PLVPSPSPPPAR | 0.727 ± 0.031
10 | VNMMYEIWPLGN | 0.624 ± 0.038
11 | GLAYGICYRVVL | 0.637 ± 0.011
12 | DGGGGGGGVAGD | 0.708 ± 0.051
13 | PPPPGPGSAPPP | 0.59 ± 0.065
14 | GFCCLGGVRPSV | 0.655 ± 0.027
15 | LARGGAAIGGES | 0.729 ± 0.086
16 | SDDPPLSLVISL | 0.754 ± 0.02
17 | DNSIWPSALCAP | 0.703 ± 0.047
18 | CGWASSWHSGLH | 0.6874 ± 0.00071
19 | RLPQSRLRTPPP | 0.705 ± 0.069
20 | ADRGLVSLAIVG | 0.582 ± 0.015
21 | TGDNNRGKRDYD | 0.678 ± 0.024
22 | TASKHINYKCLA | 0.711 ± 0.16
23 | AGTGAHGLREPR | 0.706 ± 0.15
24 | WFRCCGVLGCLG | 0.657 ± 0.019
25 | PHPPFLFPPPCP | 0.71 ± 0.051

Row | Sequence | protein stability index
26 | RYRRQESYVIIK | 0.766 ± 0.13
27 | KKKQKKVSNKQT | 0.699 ± 0.044
28 | LLNAGAMKGRLG | 0.6782 ± 0.0038
29 | SLSPPPPAPRAP | 0.663 ± 0.02
30 | EIGWEGLAGRGG | 0.754 ± 0.029
31 | GYVLVLGVKGGL | 0.648 ± 0.032
32 | YLIGRIIYFFGR | 0.582 ± 0.0021
33 | PLAALPLALSLP | 0.6575 ± 0.0055
34 | PSRPPPTPPLPP | 0.629 ± 0.14
35 | FPSSSHLPWLLI | 0.633 ± 0.014
36 | DMYSVTRDHVMI | 0.655 ± 0.04
37 | KLREYGGLPISC | 0.677 ± 0.0087
38 | LRLLRPVPPRVF | 0.5405 ± 0.0019
39 | LDLAMRQYDLTG | 0.681 ± 0.06
40 | CNGRREAGHVDM | 0.624 ± 0.13
41 | IPIPLLPASSPP | 0.6877 ± 0.0063
42 | NGSSFSRTVRFM | 0.624 ± 0.038
43 | GRAGLRIESSKY | 0.692 ± 0.024
44 | MLYNQDIGQELL | 0.652 ± 0.058
45 | SPRPLPLPLPTS | 0.682 ± 0.1
46 | PSSPPTPLPPRS | 0.663 ± 0.077
47 | CPPLSPPLLLLL | 0.667 ± 0.017
48 | WSLGRRKLLHRI | 0.666 ± 0.064
49 | GGCSLRWARCRW | 0.686 ± 0.078
50 | FNISVGPATRRV | 0.665 ± 0.045

Row | Sequence | protein stability index
51 | AVTWSRPRSARM | 0.736 ± 0.0041
52 | SRGMERIWEFGR | 0.612 ± 0.036
53 | GSIWVVGWGQGV | 0.711 ± 0.032
54 | QGGSHARDRRRL | 0.678 ± 0.013
55 | GIEKEADRVRKN | 0.659 ± 0.07
56 | RLPPPSPSLPPL | 0.722 ± 0.063
57 | LGRRHAYGSALS | 0.708 ± 0.12
58 | ALLLTLTCGLFF | 0.521 ± 0.019
59 | FISKHHPLVPPS | 0.719 ± 0.041
60 | YFGRGKLGVVRT | 0.705 ± 0.013
61 | GEDGCGGSEAGG | 0.656 ± 0.028
62 | LPRAPPPPPLLL | 0.757 ± 0.0076
63 | ELCFFISLVPDF | 0.642 ± 0.007
64 | HLGRRSGAQGLF | 0.699 ± 0.06
65 | ILVGKIEGIVQE | 0.662 ± 0.025
66 | DCFISPRIFRPK | 0.721 ± 0.023
67 | RTVTKGTTFKVR | 0.671 ± 0.057
68 | ITDCAFIPLTVD | 0.764 ± 0.095
69 | PSRYHLFLPSPA | 0.73 ± 0.055
70 | HDQKVPRERRTR | 0.699 ± 0.025
71 | LGSAIQGFLILT | 0.5996 ± 0.0017
72 | QKPHGDVSFQVM | 0.662 ± 0.033
73 | KNGANREEYITK | 0.686 ± 0.028
74 | GCSACLVSSLAG | 0.63129 ± 4e-05
75 | SMPKMGISGVIY | 0.617 ± 0.051

Row | Sequence | protein stability index
76 | MHLRFYFLKTDV | 0.597 ± 0.02
77 | GSMVRSDSFLRP | 0.66 ± 0.019
78 | CPTLSSHLLFPS | 0.659 ± 0.087
79 | GSGQPDPRDAIG | 0.677 ± 0.057
80 | AALLSSPPLSPP | 0.662 ± 0.062
81 | PPPPSLVPPSPL | 0.677 ± 0.063
82 | FRLYALAPHSPG | 0.67 ± 0.027
83 | IGGLSLGESIGG | 0.689 ± 0.02
84 | WCLDVGSVSWPF | 0.79432 ± 0.0005
85 | DVKNMVWKTIEL | 0.6746 ± 0.0065
86 | FPPPPPSRSRPV | 0.708 ± 0.032
87 | RTPQLSVFDLGI | 0.7957 ± 0.0039
88 | RRVFSAGTRCGI | 0.761 ± 0.11
89 | PPPDRLPPAHLP | 0.721 ± 0.029
90 | ARSVHGSLSLVM | 0.633 ± 0.042
91 | TFARMYRKGSED | 0.686 ± 0.0077
92 | DQRCRLQGRYQR | 0.733 ± 0.12
93 | SAMSFTSRGVRH | 0.698 ± 0.011
94 | FFGWYFCFSGVS | 0.598 ± 0.023
95 | PPPPPPPPRLTP | 0.754 ± 0.074
96 | GGGVSFWLGAVA | 0.647 ± 0.0081
97 | GSVRGFGGGGEE | 0.652 ± 0.049
98 | LYNVTRDTWVLS | 0.66 ± 0.057
99 | PPTAPTYRQSQP | 0.6754 ± 0.001
100 | CSHSLVLRFCPF | 0.607 ± 0.059

Row | Sequence | protein stability index
101 | WACYRLGCGGSW | 0.774 ± 0.041
102 | NGVGGMHGINIM | 0.696 ± 0.076
103 | EAGGAQGPTGEL | 0.634 ± 0.02
104 | PLLLPLFSSSPP | 0.777 ± 0.085
105 | VRRVVDESKTRD | 0.659 ± 0.038
106 | LSPHPPITHPTP | 0.683 ± 0.034
107 | YYEVVCPLQHRI | 0.46 ± 0.16
108 | APKVYVAAYTPL | 0.676 ± 0.025
109 | CCLFCLLWSLLY | 0.64 ± 0.0067
110 | VGWGGGESLGWV | 0.694 ± 0.13
111 | LVGSLGVYGVYV | 0.665 ± 0.043
112 | CLATAMARSQRE | 0.683 ± 0.024
113 | PVLVLPHARSPF | 0.695 ± 0.021
114 | KTNLSNRKKHKG | 0.653 ± 0.051
115 | PPPFLPLCFPPL | 0.691 ± 0.032
116 | VDLGAGVCSAVC | 0.6195 ± 0.0056
117 | GGSETHLTVTIY | 0.636 ± 0.0077
118 | LGFPSFFPNVSV | 0.6946 ± 0.0017
119 | VAVPGRFTGEGV | 0.649 ± 0.061
120 | PLPFPFPLCSQS | 0.64 ± 0.1
121 | PFPAFPPVTSPP | 0.85 ± 0.054
122 | GRKQMKINDWNI | 0.636 ± 0.077
123 | SLSLRPPPYPPP | 0.578 ± 0.0096
124 | NPHLTLPVHPPH | 0.709 ± 0.026
125 | GPSWYGKNSLHK | 0.686 ± 0.051

Row | Sequence | protein stability index
126 | PPPPSLPPPLPL | 0.698 ± 0.022
127 | EKRDKREVRPGK | 0.6626 ± 0.0055
128 | GGQEEWFGGAWL | 0.727 ± 0.036
129 | LLPPSPFTPPPF | 0.742 ± 0.076
130 | KKKVAITPQQTR | 0.685 ± 0.23
131 | CRVVRPSLEPQV | 0.697 ± 0.02
132 | LVFCSLLSLFFS | 0.557 ± 0.012
133 | KKRKKKEKKRKK | 0.773 ± 0.17
134 | CCCVLMTFTSSP | 0.561 ± 0.044
135 | LWRFMLGQGFEG | 0.726 ± 0.022
136 | PPPLSPPTPPPP | 0.674 ± 0.049
137 | SGPLPCPPLPAP | 0.676 ± 0.016
138 | TLDTICNTTKQR | 0.675 ± 0.047
139 | ARTIVLGAGSGT | 0.654 ± 0.084
140 | ASLLSCSLLPPV | 0.765 ± 0.08
141 | GGGGVVGGLLCS | 0.761 ± 0.027
142 | FVKEGRVGTARS | 0.687 ± 0.099
143 | TVIDVIKLMLHL | 0.583 ± 0.044
144 | IFINAGGYTHTN | 0.726 ± 0.067
145 | SHLAYVKWYIGD | 0.6305 ± 0.0042
146 | SRPRLPPSPCLF | 0.631 ± 0.032
